From article PMC8346855 (Proceedings of the National Academy of Sciences of the …, 2021)

How the values were obtained:
Conditions in all cases: both partners purified
[1] = biological target: T1, thermostabilized turkey beta-1 adrenergic receptor (turkey); assay: cross-linking + other: high-mass MALDI-MS; competition: Nb80 (0 to 13.3 µM) added to iso-β1AR (2.5 µM) and mGo (3.0 µM), 1 h at room temperature, BS(PEG)9 cross-linking, β-Gal as internal standard; read-out β1AR•mGo formation
T1 construct: turkey beta-1 adrenergic receptor, thermostabilized, truncated at the C terminus and intracellular loop 3; the states are told apart by the assay; also called β1AR; apo-β1AR

[2] = biological target: T1, thermostabilized turkey beta-1 …; assay: cross-linking + other: high-mass MALDI-MS; isoprenaline-bound β1AR (iso-β1AR), 5 µM, mixed with partner protein at various concentrations, 1 h at room temperature, BS(PEG)9 cross-linking, 0.6 µM β-Gal as internal standard; 20 mM Hepes pH 7.5, 40 mM NaCl, 0.01% LMNG; Ka = 1/Kd
[3] = biological target: T2, thermostabilized turkey beta-1 adrenergic receptor (Meleagris gallopavo (turkey), stabilised); assay: cross-linking; competition: 2.5 μM β1AR, 3.0 μM mGo, increasing concentrations of Nb80; BS(PEG)9, high-mass MALDI-MS
T2 construct: beta-1 adrenergic receptor, turkey, thermostabilized, truncated at the C terminus and intracellular loop 3; Not treated with kinases; Small-molecule ligand states are told apart by the assay; also called β1AR; apo-β1AR; source: purified

[4] = biological target: T2, thermostabilized turkey beta-1 …; assay: cross-linking; Kd by titrating the partner protein against isoprenaline-bound β1AR; 20 mM Hepes pH 7.5, 40 mM NaCl, 0.01% lauryl maltose neopentyl glycol; BS(PEG)9, high-mass MALDI-MS, normalised to β-galactosidase
[5] = biological target: T1, thermostabilized turkey beta-1 …; assay: cross-linking + other: high-mass MALDI-MS; formation of β1AR•mGo with the titration of mGo, reading of EC50 (Graphpad); ligand state of β1AR not told for this curve
[6] = biological target: T1, thermostabilized turkey beta-1 …; assay: cross-linking + other: high-mass MALDI-MS; ligand-free (apo) GPCR, 5 µM, mixed with partner protein at various concentrations, 1 h at room temperature, BS(PEG)9 cross-linking, β-Gal as internal standard; 20 mM Hepes pH 7.5, 40 mM NaCl, 0.01% LMNG; Ka = 1/Kd

T1 sequence (chain, as listed by the source): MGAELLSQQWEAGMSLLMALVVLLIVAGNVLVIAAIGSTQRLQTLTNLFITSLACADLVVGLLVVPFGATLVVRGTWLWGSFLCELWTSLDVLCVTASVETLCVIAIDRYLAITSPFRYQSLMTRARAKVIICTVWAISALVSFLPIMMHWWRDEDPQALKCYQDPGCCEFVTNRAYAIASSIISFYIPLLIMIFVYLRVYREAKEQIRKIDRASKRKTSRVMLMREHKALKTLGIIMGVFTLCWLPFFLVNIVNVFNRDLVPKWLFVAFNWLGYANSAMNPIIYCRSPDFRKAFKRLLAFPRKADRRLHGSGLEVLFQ
T2 sequence (P07700 other isoform, or with tags, fused parts or gaps, change not shown): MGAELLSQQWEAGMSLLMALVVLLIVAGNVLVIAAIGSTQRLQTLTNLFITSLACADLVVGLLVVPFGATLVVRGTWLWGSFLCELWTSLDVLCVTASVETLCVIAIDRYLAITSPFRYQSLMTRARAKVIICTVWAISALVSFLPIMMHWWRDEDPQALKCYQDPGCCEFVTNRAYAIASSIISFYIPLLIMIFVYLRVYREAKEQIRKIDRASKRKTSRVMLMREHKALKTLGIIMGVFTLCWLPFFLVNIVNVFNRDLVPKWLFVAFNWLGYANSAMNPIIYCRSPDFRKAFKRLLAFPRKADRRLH

B1: nanobody 80 (VHH)
VHH: QVQLQESGGGLVQAGGSLRLSCAASGSIFSINTMGWYRQAPGKQRELVAAIHSGGSTNYANSVKGRFTISRDNAANTVYLQMNSLKPEDTAVYYCNVKDYGAVLYEYDYWGQGTQVTVSS
notes: nanobody 80; also called Nb80; NB80; not shown: His6, C-terminal, kept
Binder B1 has an IC50 [1] of 4610 nM and a Ka [2] of 4.76e+06 M⁻¹.

B2: nanobody 80 (VHH)
VHH: QVQLQESGGGLVQAGGSLRLSCAASGSIFSINTMGWYRQAPGKQRELVAAIHSGGSTNYANSVKGRFTISRDNAANTVYLQMNSLKPEDTAVYYCNVKDYGAVLYEYDYWGQGTQVTVSS
notes: also called Nb80; a Gs mimetic nanobody; source: purified
With B2 the Ki [3] was 1570 ± 240 nM and the Kd [4] was 210 nM.

B3: mini-Go (domain or fragment)
chain: GIEKNLKEDGISAAKDVKLLLLGADNSGKSTIVKQMKIIHGGSGGSGGTTGIVETHFTFKNLHFRLFDVGGQRSERKKWIHCFEDVTAIIFCVDLSDYNRMHESLMDFDSICNNKFFIDTSIILFLNKKDLFGEKIKKSPLTICFPEYTGPNTYEDAAAYIQAQFESKNRSPNKEIYCHMTCATDTNNAQVIFDAVTDIIIANNLRGCGLY
notes: thermostabilized truncated form of the Gαo subunit with the GTPase domain, lacking the α-helical domain; also called mGo; source: E. coli, purified (Ni Sepharose, TEV cleavage, reverse Ni-NTA, gel filtration); not shown: His tag, N-terminal, cleaved
For B3, the EC50 [5] was 1580 nM, the Ka [6] was 4e+06 M⁻¹ and the Ka [2] was 4e+06 M⁻¹.

B4: mini-Gq (domain or fragment)
chain: GIEKQLQKDKQVYRATHRLLLLGADNSGKSTIVKQMRILHGGSGGSGGTSGIFETKFQVDKVNFHMFDVGGQRDERRKWIQCFNDVTAIIFVVDSSDYNRLQEALNDFKSIWNNRWLRTISVILFLNKQDLLAEKVLAGKSKIEDYFPEFARYTTPEDATPEPGEDPRVTRAKYFIRDEFLRISTASGDGRHYCYPHFTCAVDTENARRIFNDCKDIILQMNLREYNLV
notes: engineered from mGs (Dm5) by nine mutations on the α5-helix that correspond to residues of Gq; only residues of the α5-helix are those of Gq; also called mGq; source: E. coli, purified (Ni Sepharose, TEV cleavage, reverse Ni-NTA, gel filtration); not shown: His tag, N-terminal, cleaved
Binder B4 has a Ka [2] of 810000 M⁻¹.

B5: mini-Gi (domain or fragment)
chain: GIEKQLQKDKQVYRATHRLLLLGADNSGKSTIVKQMRILHGGSGGSGGTSGIFETKFQVDKVNFHMFDVGGQRDERRKWIQCFNDVTAIIFVVDSSDYNRLQEALNDFKSIWNNRWLRTISVILFLNKQDLLAEKVLAGKSKIEDYFPEFARYTTPEDATPEPGEDPRVTRAKYFIRDEFLRISTASGDGRHYCYPHFTCAVDTENARRIFNDVTDIIIKMNLRDCGLF
notes: engineered from mGs (Dm5) by seven mutations on the α5-helix that correspond to residues of Gi; only residues of the α5-helix are those of Gi; also called mGi; source: E. coli, purified (Ni Sepharose, TEV cleavage, reverse Ni-NTA, gel filtration); not shown: His tag, N-terminal, cleaved
In the case of B5, the Ka [2] is reported as 620000 M⁻¹.

B6: mini-Gs (domain or fragment)
chain: GIEKQLQKDKQVYRATHRLLLLGADNSGKSTIVKQMRILHGGSGGSGGTSGIFETKFQVDKVNFHMFDVGGQRDERRKWIQCFNDVTAIIFVVDSSDYNRLQEALNDFKSIWNNRWLRTISVILFLNKQDLLAEKVLAGKSKIEDYFPEFARYTTPEDATPEPGEDPRVTRAKYFIRDEFLRISTASGDGRHYCYPHFTCAVDTENARRIFNDCRDIIQRMHLRQYELL
notes: thermostabilized truncated Gαs with the GTPase domain, lacking the α-helical domain; also called mGs; source: E. coli, purified (Ni Sepharose, TEV cleavage, reverse Ni-NTA, gel filtration); not shown: His tag, N-terminal, cleaved
B6 was tested, and the Ka [2] was 2.86e+06 M⁻¹.

B7: mini-Go truncated by its last five residues (domain or fragment)
chain: GIEKNLKEDGISAAKDVKLLLLGADNSGKSTIVKQMKIIHGGSGGSGGTTGIVETHFTFKNLHFRLFDVGGQRSERKKWIHCFEDVTAIIFCVDLSDYNRMHESLMDFDSICNNKFFIDTSIILFLNKKDLFGEKIKKSPLTICFPEYTGPNTYEDAAAYIQAQFESKNRSPNKEIYCHMTCATDTNNAQVIFDAVTDIIIANNLR
notes: mGo (Dm6) without its last five residues GCGLY; also called mGo_Δ5; source: E. coli, purified (same protocol as the mGα proteins); not shown: His tag, N-terminal, cleaved
For B7, the Ka [6] was 3.57e+06 M⁻¹ and the Ka [2] was 4.17e+06 M⁻¹.
